The target of this assay is ER peptide mimic. In words: immunostaining of ER peptide mimic spots on a membrane, colour scored 1-4+.

As to “1D5 anti-human estrogen receptor mouse monoclonal antibody”, the Staining intensity (1-4+) is 4 1-4+ scale.

Source of the values: patent US7011940.
